Laboratory results published in article PMC3989342.

Biological target: F-actin (endogenous, detected with anti-beta-actin antibodies) (rat (endogenous in hippocampal neurons)) (UniProt P60711)
Experiment: FRET or BRET; antibody-based acceptor-photobleaching FRET in fixed rat hippocampal neurons, single dendritic spine heads; anti-cofilin AE774 with Alexa 488 secondary (donor), anti-beta-actin AC15 with Alexa 555 secondary (acceptor); F-actin fixed, G-actin mostly extracted; control neurons, 2 min NMDA (nLTD), chronophin (CIN) overexpression

cofilin (endogenous cofilin/ADF of rat hippocampal neurons) (from UniProt P45592 1-166) (natural protein)
ratio of FRET in the presence versus the absence of nLTD, CIN-expressing neurons: 51%
